Consider six molecules from patent US20260022171A1 (23ANDME, published 2026).

For orientation: Kd means a measure of binding affinity in units of concentration. What is called IC50 is the concentration at which inhibition is half-maximal. The term koff denotes the first-order rate constant of dissociation. A lower koff goes with a long-lived complex. The term kon denotes a measure of how fast the partners come together. A higher kon goes with fast association.

B5: cyno-CD200R1 ECD (receptor)
chain: AAQSNNSLMLQTSKENHTLASNSLCMDEKQITQNHSKVLAEVNISWPVQMARNAVLCCPPIEFRNLIVITWEIILRGQPSCTKTYRKDTNETKETNCTDERITWVSTPDQNSDLQIHPVAITHDGYYRCIMATPDGNFHRGYHLQVLVTPEVTLFESRNRTAVCKAVAGKPAAQISWIPAGDCAPTEQEYWGNGTVTVKSTCHWEGHNVSTVTCHVSHLTGNKSLYIELLPVPGAKKSAKLGGGSGLNDIFEAQKIEWHEGSGGHHHHHHHH
notes: also called cynomolgus monkey CD200R1; MfCD200R1 (recombinant)

Assay [1] deals with B5. The assay can be described thus: Biacore, binding to MfCD200R1.
Assay [2] deals with B5. The assay can be described thus: SPR binding affinity to recombinant MfCD200R1. (SPR reads the build-up and loss of mass on a sensor chip optically.)
For assay [3], the target named is B5. The experiment in a line: blocking ELISA, MfCD200R1 to immobilized MfCD200.
Protocol: Binding was evaluated by incubating with HRP-streptavidin and colorimetric substrate, followed by monitoring the OD450 in each well.
Assay [4] has as its target T1, hu-CD200R1-iso4-Ref ECD (human).
T1 chain: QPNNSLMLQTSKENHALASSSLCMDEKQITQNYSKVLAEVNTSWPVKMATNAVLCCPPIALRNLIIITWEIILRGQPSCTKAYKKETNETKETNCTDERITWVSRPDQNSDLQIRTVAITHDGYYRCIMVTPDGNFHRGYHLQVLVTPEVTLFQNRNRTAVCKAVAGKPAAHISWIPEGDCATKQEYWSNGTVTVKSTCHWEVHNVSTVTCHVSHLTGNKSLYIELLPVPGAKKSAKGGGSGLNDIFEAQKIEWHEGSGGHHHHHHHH
The assay can be described thus: SPR Biacore 8K 37C; antibody on Protein A chip, CD200R1 analyte.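 Note: sensorgrams corrected by subtracting reference and buffer signals, then analysed with Biacore 8K Evaluation Software.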
Protocol: (§1) The sensorgram was recorded and subject to reference and buffer subtraction before evaluation by BIACORE®8K Evaluation Software (version 1.1.1.7442). Association rates (kₒ₀) and dissociation rates (koff) were calculated using a simple one-to-one Langmuir binding model.

Assay [5] concerns the target T2, hu-CD200R1-iso4-Alt ECD (human).
T2 construct: also called isoform 4 alt
T2 chain: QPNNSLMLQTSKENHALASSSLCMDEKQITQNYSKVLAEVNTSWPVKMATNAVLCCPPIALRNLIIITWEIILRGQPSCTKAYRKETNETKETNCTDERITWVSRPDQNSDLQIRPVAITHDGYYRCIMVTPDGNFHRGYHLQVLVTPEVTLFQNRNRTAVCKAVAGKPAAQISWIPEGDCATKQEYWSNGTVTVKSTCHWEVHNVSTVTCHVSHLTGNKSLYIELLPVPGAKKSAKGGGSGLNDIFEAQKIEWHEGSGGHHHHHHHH
The assay is described as above.
Protocol: as §1

In assay [6] the target is B5. The assay is described as above.
Protocol: as §1
For assay [7], the target named is T1, hu-CD200R1-iso4-Ref ECD. The assay can be described thus: blocking ELISA; biotin-hu-CD200R1 + antibody dilutions on coated hu-CD200-Fc. On the technique in general: In an ELISA, binding on a coated surface is turned into a signal by an enzyme label.
Protocol: (§2) After removing the coating solution, unspecific binding was blocked with PBS containing 1% bovine serum albumin (BSA) and incubation at room temperature for one hour. Plates were then washed five times in PBS with 0.05% TWEEN®-20 (wash buffer).
Assay [8] addresses B5. The assay can be described thus: blocking ELISA; biotin-cyno-CD200R1 + antibody dilutions on coated cyno-CD200-Fc.
Another assay concerns the target T3, cyno-CD200-Fc (cynomolgus monkey).
T3 construct: also called MfCD200-Fc; Fc-tagged MfCD200
The assay can be described thus: ELISA: biotinylated MfCD200R1 (0.12 ug/ml) on plate-immobilised Fc-tagged MfCD200, HRP-streptavidin, OD450.

For assay [9], the target named is T1, hu-CD200R1-iso4-Ref ECD. The experiment in a line: SPR Biacore 8K 37C; biotin-CD200R1 captured, antibody analyte.
Protocol: (§3) For kinetics measurements, 3 nM biotinylated human CD200R1. […] The sensorgram was recorded and subject to reference and buffer subtraction before evaluating by BIACORE® 8K Evaluation Software (version 1.1.1.7442).
(§4) Association rates (kₒₙ) and dissociation rates (koff) were calculated using a simple one-to-one Langmuir binding model. The equilibrium dissociation constant (KD) was calculated as the ratio of koff/kₒₙ.
The target in assay [10] is T4, hu-CD200R1-iso1-Ref ECD (human).
T4 chain: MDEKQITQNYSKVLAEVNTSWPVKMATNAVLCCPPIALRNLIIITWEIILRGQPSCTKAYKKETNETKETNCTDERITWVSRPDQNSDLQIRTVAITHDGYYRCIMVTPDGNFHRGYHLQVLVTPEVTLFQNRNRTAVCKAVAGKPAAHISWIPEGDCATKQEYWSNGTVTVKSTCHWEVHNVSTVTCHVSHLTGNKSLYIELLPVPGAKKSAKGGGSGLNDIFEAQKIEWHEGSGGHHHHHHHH
Described as above.
Protocol: as §3, §4

Assay [11] has as its target T2, hu-CD200R1-iso4-Alt ECD. Described as above.
Protocol: as §3, §4
Assay [12] has as its target T5, hu-CD200R1-iso1-Alt ECD (human).
T5 chain: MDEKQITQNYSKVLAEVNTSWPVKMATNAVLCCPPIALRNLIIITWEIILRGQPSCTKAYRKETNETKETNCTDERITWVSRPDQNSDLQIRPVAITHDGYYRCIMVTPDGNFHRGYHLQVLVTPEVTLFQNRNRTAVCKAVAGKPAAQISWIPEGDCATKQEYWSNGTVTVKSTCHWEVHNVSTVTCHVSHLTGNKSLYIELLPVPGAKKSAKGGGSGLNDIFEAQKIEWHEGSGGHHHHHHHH
Described as above.
Protocol: as §3, §4

Assay [13] addresses T1, hu-CD200R1-iso4-Ref ECD. The experiment in a line: blocking ELISA; biotin-CD200R1 + antibody dilutions on coated hu-CD200-Fc.
Protocol: as §2
Assay [14] concerns the target T4, hu-CD200R1-iso1-Ref ECD. Described as above.
Protocol: as §2
In assay [15] the target is T2, hu-CD200R1-iso4-Alt ECD. The assay is described as above.
Protocol: as §2
The target of assay [16] is T5, hu-CD200R1-iso1-Alt ECD. The assay is described as above.
Protocol: as §2

T3 sequence (chain, as listed by the source limits assumed): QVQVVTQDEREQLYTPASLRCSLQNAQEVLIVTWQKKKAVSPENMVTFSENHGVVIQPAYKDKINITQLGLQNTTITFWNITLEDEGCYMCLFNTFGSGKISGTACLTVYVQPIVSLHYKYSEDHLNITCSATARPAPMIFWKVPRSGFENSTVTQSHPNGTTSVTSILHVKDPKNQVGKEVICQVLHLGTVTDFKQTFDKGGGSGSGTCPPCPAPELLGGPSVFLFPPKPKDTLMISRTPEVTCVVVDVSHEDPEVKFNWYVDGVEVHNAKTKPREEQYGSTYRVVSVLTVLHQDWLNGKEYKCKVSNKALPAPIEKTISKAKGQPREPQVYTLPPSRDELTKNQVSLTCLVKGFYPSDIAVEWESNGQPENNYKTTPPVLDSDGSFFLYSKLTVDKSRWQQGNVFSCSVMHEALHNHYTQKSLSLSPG

B1: h10F6.V1 (antibody, IgG1, V domains shown)
VH: EVQLQESGPGLVKPSETLSLTCTVSGFSLTNYRVSWVRQPPGKGLEWLGVMYAGGGTNYNSVFKSRLTISKDNSKNQVSLKLSSVTAADTAVYYCARERPLTGVMDNWGQGTLVTVSS
VL: DIVLTQSPDSLAVSLGERATINCRASESVDYSGNSFMHWFQQKPGQPPKLLIYRASNLESGIPDRFSGSGSRTDFTLTISSLQAEDVAVYYCHQSNWDPPTFGGGTKVEIKR
notes: differs by 3 residues in the heavy chain CDRs and 1 in the light chain CDRs; also called surrogate antibody
With B1, the Kd came to 2.63 nM with cyno-CD200R1 ECD [1]; 2.63 nM in the assay with cyno-CD200R1 ECD [2]; 0.716 nM with hu-CD200R1-iso4-Ref ECD [4]; 0.814 nM in the assay with hu-CD200R1-iso4-Alt ECD [5]; 10.5 nM with cyno-CD200R1 ECD [6]. For the same molecule, the IC50 in the assay with cyno-CD200R1 ECD [3] amounted to 2.45 nM; with hu-CD200R1-iso4-Ref ECD [7], 0.58 nM; with cyno-CD200R1 ECD [8] it was 2.44 nM. The koff with hu-CD200R1-iso4-Ref ECD [4] was 0.000964 s⁻¹; with hu-CD200R1-iso4-Alt ECD [5], 0.00117 s⁻¹; with cyno-CD200R1 ECD [6], 0.00457 s⁻¹. Moreover, the kon was 1.35e+06 M⁻¹ s⁻¹ with hu-CD200R1-iso4-Ref ECD [4], 1.44e+06 M⁻¹ s⁻¹ in the assay with hu-CD200R1-iso4-Alt ECD [5] and 436000 M⁻¹ s⁻¹ in the assay with cyno-CD200R1 ECD [6].

B2: h10F6.V3 (antibody, IgG1, V domains shown)
VH: EVQLQESGPGLVKPSETLSLTCTVSGFSLTNYRVSWVRQPPGKGLEWLGVMYAGGGTNYNSVFKSRLTISKDNSKNQVSLKLSSVTAADTAVYYCARERPLTGVMDNWGQGTLVTVSS
VL: DIVLTQSPDSLAVSLGERATINCRASESVDYSGNSFMHWFQQKPGQPPKLLIYRASNLESGIPDRFSGSGSRTDFTLTISSLQAEDVAVYYCHQSNEDPPTFGGGTKVEIKR
notes: IgG1 variant of h10F6
For B2, the Kd was determined as 0.817 nM with hu-CD200R1-iso4-Ref ECD [4], 0.935 nM in the assay with hu-CD200R1-iso4-Alt ECD [5] and 60.7 nM with cyno-CD200R1 ECD [6]. Moreover, the figures for the koff in the assay with hu-CD200R1-iso4-Ref ECD [4], in the assay with hu-CD200R1-iso4-Alt ECD [5] and with cyno-CD200R1 ECD [6] were 0.00153 s⁻¹, 0.00191 s⁻¹ and 0.0195 s⁻¹, respectively. The kon in the assay with hu-CD200R1-iso4-Ref ECD [4] came to 1.88e+06 M⁻¹ s⁻¹; with hu-CD200R1-iso4-Alt ECD [5] it was 2.04e+06 M⁻¹ s⁻¹; in the assay with cyno-CD200R1 ECD [6], 322000 M⁻¹ s⁻¹. Further, the 50% inhibitory concentration (IC50) with hu-CD200R1-iso4-Ref ECD [7] worked out at 0.56 nM; with cyno-CD200R1 ECD [8], 11.4 nM.

B3: h10F6.V4 (antibody, IgG1, V domains shown)
VH: EVQLQESGPGLVKPSETLSLTCTVSGFSLTNYWVSWVRQPPGKGLEWLGTMWAGGGTNYNSVFKSRLTISKDNSKNQVSLKLSSVTAADTAVYYCARERPLTGPMDYWGQGTLVTVSS
VL: DIVLTQSPDSLAVSLGERATINCRASESVDYSGNSFMHWFQQKPGQPPKLLIYRASNLESGIPDRFSGSGSRTDFTLTISSLQAEDVAVYYCHQSNWDPPTFGGGTKVEIKR
notes: IgG1 variant of h10F6
As to B3, the Kd is 8.93 nM with hu-CD200R1-iso4-Ref ECD [4], 9.99 nM with hu-CD200R1-iso4-Alt ECD [5] and 5.87 nM in the assay with cyno-CD200R1 ECD [6]. The koff with hu-CD200R1-iso4-Ref ECD [4] worked out at 0.00336 s⁻¹; in the assay with hu-CD200R1-iso4-Alt ECD [5] it was 0.00387 s⁻¹; with cyno-CD200R1 ECD [6] it was 0.00113 s⁻¹. Moreover, the association rate constant (kon) in the assay with hu-CD200R1-iso4-Ref ECD [4] was 377000 M⁻¹ s⁻¹; in the assay with hu-CD200R1-iso4-Alt ECD [5], 388000 M⁻¹ s⁻¹; with cyno-CD200R1 ECD [6], 193000 M⁻¹ s⁻¹. Further, the IC50 stood at 10.9 nM with hu-CD200R1-iso4-Ref ECD [7] and 2.15 nM with cyno-CD200R1 ECD [8].

B4: h10F6.V2 (antibody, IgG1, V domains shown)
VH: EVQLQESGPGLVKPSETLSLTCTVSGFSLTNYWVSWVRQPPGKGLEWLGTMWAGGGTNYNSVFKSRLTISKDNSKNQVSLKLSSVTAADTAVYYCARERPLTGPMDYWGQGTLVTVSS
VL: DIVLTQSPDSLAVSLGERATINCRASESVDYSGNSFMHWFQQKPGQPPKLLIYRASNLESGIPDRFSGSGSRTDFTLTISSLQAEDVAVYYCHQSNEDPPTFGGGTKVEIKR
notes: IgG1 variant of h10F6
With B4, the Kd with hu-CD200R1-iso4-Ref ECD [4] was 6.04 nM; in the assay with hu-CD200R1-iso4-Alt ECD [5], 6.68 nM; with cyno-CD200R1 ECD [6], 16.3 nM. The figures for the koff in the assay with hu-CD200R1-iso4-Ref ECD [4], with hu-CD200R1-iso4-Alt ECD [5] and in the assay with cyno-CD200R1 ECD [6] were 0.00367 s⁻¹, 0.00425 s⁻¹ and 0.00351 s⁻¹, respectively. Also, the kon in the assay with hu-CD200R1-iso4-Ref ECD [4] is 607000 M⁻¹ s⁻¹; with hu-CD200R1-iso4-Alt ECD [5] it was 635000 M⁻¹ s⁻¹; in the assay with cyno-CD200R1 ECD [6], 216000 M⁻¹ s⁻¹. For the same molecule, the IC50 with hu-CD200R1-iso4-Ref ECD [7] is 4.79 nM; in the assay with cyno-CD200R1 ECD [8], 4.25 nM.

For the molecule B5, the binding result in the assay with cyno-CD200-Fc was “binds”.

B6: h22.1 (humanized 22.1 IgG) (antibody, V domains shown)
VH: EVQLVQSGAEVKKPGASVKVSCKASGYTFTSYVMFWVRQAPGQRLEWIGYINPYNDDTKYNEKFKGRATLTSDKSASTAYMELSSLRSEDTAVYYCAREDYYGSRFVYWGQGTLVTVSS
VL: DIQLTQSPSSLSASVGDRVTITCRASKSVSTSGYSYMHWYQQKPGKPPKLLIYLASNLESGVPSRFSGSGSGTDFTLTISSLQPEDFATYYCQHNRELLTFGGGTKVEIKR
With B6, the Kd in the assay with hu-CD200R1-iso4-Ref ECD [9] came out at 1.92 nM; in the assay with hu-CD200R1-iso1-Ref ECD [10] it was 0.501 nM; with hu-CD200R1-iso4-Alt ECD [11], 1.92 nM; in the assay with hu-CD200R1-iso1-Alt ECD [12] it was 0.535 nM. The koff with hu-CD200R1-iso4-Ref ECD [9] was 0.00115 s⁻¹; with hu-CD200R1-iso1-Ref ECD [10], 0.00151 s⁻¹; in the assay with hu-CD200R1-iso4-Alt ECD [11] it was 0.00116 s⁻¹; with hu-CD200R1-iso1-Alt ECD [12] it was 0.00166 s⁻¹. Besides, the association rate constant (kon) is 598000 M⁻¹ s⁻¹ with hu-CD200R1-iso4-Ref ECD [9], 3.02e+06 M⁻¹ s⁻¹ with hu-CD200R1-iso1-Ref ECD [10], 604000 M⁻¹ s⁻¹ with hu-CD200R1-iso4-Alt ECD [11] and 3.11e+06 M⁻¹ s⁻¹ with hu-CD200R1-iso1-Alt ECD [12]. Further, the IC50 with hu-CD200R1-iso4-Ref ECD [13] came to 5.32 nM; in the assay with hu-CD200R1-iso1-Ref ECD [14], 5.86 nM; with hu-CD200R1-iso4-Alt ECD [15], 4.59 nM; with hu-CD200R1-iso1-Alt ECD [16], 7.45 nM.
